In patent US20020197702A1:
* marks the point of attachment. AMC = Cc1cc(=O)oc2cc(N*)ccc12

Target: membrane-derived caspases
Assay: cell-based or functional assay

## Ac-DEVD-{AMC} [DEVD-amc (Acetyl-Asp-Glu-Val-Asp-aminomethylcoumarin)]
  Km for hydrolysis of DEVD-amc: 10 µM
